Source: paper PMC4011921 (mAbs, 2014)

Columns and labels:
[1] = target: human IL-6 (Homo sapiens, UniProt P05231); experiment: SPR
[2] = target: cynomolgus IL-6 (cynomolgus, UniProt P79341); experiment: SPR
Sequence of cynomolgus IL-6 (P79341 28-212): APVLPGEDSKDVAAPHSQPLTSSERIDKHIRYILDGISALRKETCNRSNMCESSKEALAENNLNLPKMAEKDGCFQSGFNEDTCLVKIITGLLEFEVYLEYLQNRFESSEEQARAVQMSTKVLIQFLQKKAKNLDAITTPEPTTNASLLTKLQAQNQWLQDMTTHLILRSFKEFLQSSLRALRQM

Sequence of human IL-6 (P05231 30-212): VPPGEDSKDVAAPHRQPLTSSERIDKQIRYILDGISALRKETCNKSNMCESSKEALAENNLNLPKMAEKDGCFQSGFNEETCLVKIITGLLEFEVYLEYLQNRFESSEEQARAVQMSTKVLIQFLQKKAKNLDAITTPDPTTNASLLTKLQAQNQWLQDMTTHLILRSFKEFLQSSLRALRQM

Kd [1]: 0.01 nM
binding result [2]: binds
B1: olokizumab (antibody, V domains shown)
VH: EVQLVESGGGLVQPGGSLRLSCAASGFNFNDYFMNWVRQAPGKGLEWVAQMRNKNYQYGTYYAESLEGRFTISRDDSKNSLYLQMNSLKTEDTAVYYCARESYYGFTSYWGQGTLVTVSS
VL: DIQMTQSPSSLSASVGDRVTITCQASQDIGISLSWYQQKPGKAPKLLIYNANNLADGVPSRFSGSGSGTDFTLTISSLQPEDFATYYCLQHNSAPYTFGQGTKLEIK
